Biological target: the molecule itself
Assay: thioflavin-T aggregation assay; 30 μM peptide in PBS with 20 μM Th-T, pH 7.2, 100 μl in black 96-well nonbinding plate, 37 °C, fluorescence (ex 440 nm, em 495 nm) every 15 min for 18 h; peptide alone

B1: ADan amyloid peptide (peptide)
peptide: EASNCFAIRHFENKFAVETLICFNLFLNSQEKHY
notes: 34 aa amyloid peptide released by pro-protein convertases from the familial Danish dementia (FDD) mutant form of human BRI2 (ITM2B); The first 22 residues are as in wild-type BRI2; Reconstituted in hexafluoroisopropanol (1 mg/ml, 7 days), stock in dimethyl sulfoxide, diluted in PBS; also called Danish amyloid; source: synthetic peptide (ERI Amyloid Laboratory)
B1: binds.

From article PMC9792896, “Lack of ApoE inhibits ADan amyloidosis in a mouse model of familial Danish dementia” (The Journal of Biological Chemistry, 2022)
